To fix the notation:
T1: human glucose-dependent insulinotropic polypeptide (GIP) receptor (human), P48546
T1 chain: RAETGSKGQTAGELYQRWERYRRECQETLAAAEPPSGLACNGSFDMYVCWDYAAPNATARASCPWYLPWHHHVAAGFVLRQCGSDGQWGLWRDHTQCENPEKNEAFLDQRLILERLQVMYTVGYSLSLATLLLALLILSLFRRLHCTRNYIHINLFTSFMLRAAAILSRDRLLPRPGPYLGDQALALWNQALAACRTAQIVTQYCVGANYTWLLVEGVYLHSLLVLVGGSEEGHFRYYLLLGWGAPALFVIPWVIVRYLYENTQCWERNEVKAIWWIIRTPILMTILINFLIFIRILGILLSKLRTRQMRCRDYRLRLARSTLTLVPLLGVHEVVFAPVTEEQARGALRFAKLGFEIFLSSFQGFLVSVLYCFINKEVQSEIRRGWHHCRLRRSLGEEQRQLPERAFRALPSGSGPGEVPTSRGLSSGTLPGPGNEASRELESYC

B1: Example 106 (peptide)
peptide: Y[Aib]EGTFISDYSI[αMeL]LD[Orn]IHQ[Aib]EFVEYK([AEEA-AEEA-γGlu-C20 diacid])LEQGPSSGAPPPS-NH2
modifications: N-terminus assumed
SMILES: CC[C@H](C)[C@H](NC(=O)[C@H](CCCN)NC(=O)[C@H](CC(=O)O)NC(=O)[C@H](CC(C)C)NC(=O)[C@](C)(CC(C)C)NC(=O)[C@@H](NC(=O)[C@H](CO)NC(=O)[C@H](Cc1ccc(O)cc1)NC(=O)[C@H](CC(=O)O)NC(=O)[C@H](CO)NC(=O)[C@@H](NC(=O)[C@H](Cc1ccccc1)NC(=O)[C@@H](NC(=O)CNC(=O)[C@H](CCC(=O)O)NC(=O)C(C)(C)NC(=O)[C@@H](N)Cc1ccc(O)cc1)[C@@H](C)O)[C@@H](C)CC)[C@@H](C)CC)C(=O)N[C@@H](Cc1c[nH]cn1)C(=O)N[C@@H](CCC(N)=O)C(=O)NC(C)(C)C(=O)N[C@@H](CCC(=O)O)C(=O)N[C@@H](Cc1ccccc1)C(=O)N[C@H](C(=O)N[C@@H](CCC(=O)O)C(=O)N[C@@H](Cc1ccc(O)cc1)C(=O)N[C@@H](CCCCNC(=O)COCCOCCNC(=O)COCCOCCNC(=O)CC[C@H](NC(=O)CCCCCCCCCCCCCCCCCCC(=O)O)C(=O)O)C(=O)N[C@@H](CC(C)C)C(=O)N[C@@H](CCC(=O)O)C(=O)N[C@@H](CCC(N)=O)C(=O)NCC(=O)N1CCC[C@H]1C(=O)N[C@@H](CO)C(=O)N[C@@H](CO)C(=O)NCC(=O)N[C@@H](C)C(=O)N1CCC[C@H]1C(=O)N1CCC[C@H]1C(=O)N1CCC[C@H]1C(=O)N[C@@H](CO)C(N)=O)C(C)C
B2: Example 94 (peptide)
peptide: Y[Aib]EGT[αMePhe(2-F)]ISDYSIALDKIHQ[Aib]EFVNYK([AEEA-AEEA-γGlu-C18 diacid])LAGGPSSGAPPPS-NH2
modifications: N-terminus assumed
SMILES: CC[C@H](C)[C@H](NC(=O)[C@H](CO)NC(=O)[C@H](Cc1ccc(O)cc1)NC(=O)[C@H](CC(=O)O)NC(=O)[C@H](CO)NC(=O)[C@@H](NC(=O)[C@](C)(Cc1ccccc1F)NC(=O)[C@@H](NC(=O)CNC(=O)[C@H](CCC(=O)O)NC(=O)C(C)(C)NC(=O)[C@@H](N)Cc1ccc(O)cc1)[C@@H](C)O)[C@@H](C)CC)C(=O)N[C@@H](C)C(=O)N[C@@H](CC(C)C)C(=O)N[C@@H](CC(=O)O)C(=O)N[C@@H](CCCCN)C(=O)N[C@H](C(=O)N[C@@H](Cc1c[nH]cn1)C(=O)N[C@@H](CCC(N)=O)C(=O)NC(C)(C)C(=O)N[C@@H](CCC(=O)O)C(=O)N[C@@H](Cc1ccccc1)C(=O)N[C@H](C(=O)N[C@@H](CC(N)=O)C(=O)N[C@@H](Cc1ccc(O)cc1)C(=O)N[C@@H](CCCCNC(=O)COCCOCCNC(=O)COCCOCCNC(=O)CC[C@H](NC(=O)CCCCCCCCCCCCCCCCC(=O)O)C(=O)O)C(=O)N[C@@H](CC(C)C)C(=O)N[C@@H](C)C(=O)NCC(=O)NCC(=O)N1CCC[C@H]1C(=O)N[C@@H](CO)C(=O)N[C@@H](CO)C(=O)NCC(=O)N[C@@H](C)C(=O)N1CCC[C@H]1C(=O)N1CCC[C@H]1C(=O)N1CCC[C@H]1C(=O)N[C@@H](CO)C(N)=O)C(C)C)[C@@H](C)CC
B3: Example 100 (peptide)
peptide: Y[Aib]EGTFISDYSI[αMeL]LDKIHQ[Aib]EFVE[4Pal]K([AEEA-AEEA-γGlu-C20 diacid])LEGGPSSGAPPPS-NH2
modifications: N-terminus assumed
SMILES: CC[C@H](C)[C@H](NC(=O)[C@H](CCCCN)NC(=O)[C@H](CC(=O)O)NC(=O)[C@H](CC(C)C)NC(=O)[C@](C)(CC(C)C)NC(=O)[C@@H](NC(=O)[C@H](CO)NC(=O)[C@H](Cc1ccc(O)cc1)NC(=O)[C@H](CC(=O)O)NC(=O)[C@H](CO)NC(=O)[C@@H](NC(=O)[C@H](Cc1ccccc1)NC(=O)[C@@H](NC(=O)CNC(=O)[C@H](CCC(=O)O)NC(=O)C(C)(C)NC(=O)[C@@H](N)Cc1ccc(O)cc1)[C@@H](C)O)[C@@H](C)CC)[C@@H](C)CC)C(=O)N[C@@H](Cc1c[nH]cn1)C(=O)N[C@@H](CCC(N)=O)C(=O)NC(C)(C)C(=O)N[C@@H](CCC(=O)O)C(=O)N[C@@H](Cc1ccccc1)C(=O)N[C@H](C(=O)N[C@@H](CCC(=O)O)C(=O)N[C@@H](Cc1ccncc1)C(=O)N[C@@H](CCCCNC(=O)COCCOCCNC(=O)COCCOCCNC(=O)CC[C@H](NC(=O)CCCCCCCCCCCCCCCCCCC(=O)O)C(=O)O)C(=O)N[C@@H](CC(C)C)C(=O)N[C@@H](CCC(=O)O)C(=O)NCC(=O)NCC(=O)N1CCC[C@H]1C(=O)N[C@@H](CO)C(=O)N[C@@H](CO)C(=O)NCC(=O)N[C@@H](C)C(=O)N1CCC[C@H]1C(=O)N1CCC[C@H]1C(=O)N1CCC[C@H]1C(=O)N[C@@H](CO)C(N)=O)C(C)C
B4: Example 99 (peptide)
peptide: Y[Aib]EGT[αMePhe(2-F)]ISDYSIALDKIHQ[Aib]DFVEYK([AEEA-AEEA-γGlu-C20 diacid])LEGGPSSGAPPPS-NH2
modifications: N-terminus assumed
SMILES: CC[C@H](C)[C@H](NC(=O)[C@H](CO)NC(=O)[C@H](Cc1ccc(O)cc1)NC(=O)[C@H](CC(=O)O)NC(=O)[C@H](CO)NC(=O)[C@@H](NC(=O)[C@](C)(Cc1ccccc1F)NC(=O)[C@@H](NC(=O)CNC(=O)[C@H](CCC(=O)O)NC(=O)C(C)(C)NC(=O)[C@@H](N)Cc1ccc(O)cc1)[C@@H](C)O)[C@@H](C)CC)C(=O)N[C@@H](C)C(=O)N[C@@H](CC(C)C)C(=O)N[C@@H](CC(=O)O)C(=O)N[C@@H](CCCCN)C(=O)N[C@H](C(=O)N[C@@H](Cc1c[nH]cn1)C(=O)N[C@@H](CCC(N)=O)C(=O)NC(C)(C)C(=O)N[C@@H](CC(=O)O)C(=O)N[C@@H](Cc1ccccc1)C(=O)N[C@H](C(=O)N[C@@H](CCC(=O)O)C(=O)N[C@@H](Cc1ccc(O)cc1)C(=O)N[C@@H](CCCCNC(=O)COCCOCCNC(=O)COCCOCCNC(=O)CC[C@H](NC(=O)CCCCCCCCCCCCCCCCCCC(=O)O)C(=O)O)C(=O)N[C@@H](CC(C)C)C(=O)N[C@@H](CCC(=O)O)C(=O)NCC(=O)NCC(=O)N1CCC[C@H]1C(=O)N[C@@H](CO)C(=O)N[C@@H](CO)C(=O)NCC(=O)N[C@@H](C)C(=O)N1CCC[C@H]1C(=O)N1CCC[C@H]1C(=O)N1CCC[C@H]1C(=O)N[C@@H](CO)C(N)=O)C(C)C)[C@@H](C)CC
B5: Example 5 (peptide)
peptide: Y[Aib]EGTFISDYSI[αMeL]LDKIHQ[Aib]DFVEYK([AEEA-AEEA-γGlu-C20 diacid])LEGGPSSGAPPPS-NH2
modifications: N-terminus assumed
SMILES: CC[C@H](C)[C@H](NC(=O)[C@H](CCCCN)NC(=O)[C@H](CC(=O)O)NC(=O)[C@H](CC(C)C)NC(=O)[C@](C)(CC(C)C)NC(=O)[C@@H](NC(=O)[C@H](CO)NC(=O)[C@H](Cc1ccc(O)cc1)NC(=O)[C@H](CC(=O)O)NC(=O)[C@H](CO)NC(=O)[C@@H](NC(=O)[C@H](Cc1ccccc1)NC(=O)[C@@H](NC(=O)CNC(=O)[C@H](CCC(=O)O)NC(=O)C(C)(C)NC(=O)[C@@H](N)Cc1ccc(O)cc1)[C@@H](C)O)[C@@H](C)CC)[C@@H](C)CC)C(=O)N[C@@H](Cc1c[nH]cn1)C(=O)N[C@@H](CCC(N)=O)C(=O)NC(C)(C)C(=O)N[C@@H](CC(=O)O)C(=O)N[C@@H](Cc1ccccc1)C(=O)N[C@H](C(=O)N[C@@H](CCC(=O)O)C(=O)N[C@@H](Cc1ccc(O)cc1)C(=O)N[C@@H](CCCCNC(=O)COCCOCCNC(=O)COCCOCCNC(=O)CC[C@H](NC(=O)CCCCCCCCCCCCCCCCCCC(=O)O)C(=O)O)C(=O)N[C@@H](CC(C)C)C(=O)N[C@@H](CCC(=O)O)C(=O)NCC(=O)NCC(=O)N1CCC[C@H]1C(=O)N[C@@H](CO)C(=O)N[C@@H](CO)C(=O)NCC(=O)N[C@@H](C)C(=O)N1CCC[C@H]1C(=O)N1CCC[C@H]1C(=O)N1CCC[C@H]1C(=O)N[C@@H](CO)C(N)=O)C(C)C
B6: Example 107 (peptide)
peptide: Y[Aib]EGTFISDYSI[αMeL]LD[Orn]IHQ[Aib]EFVEYK([AEEA-AEEA-γGlu-C20 diacid])LEGGPSSGAPPPS-NH2
modifications: N-terminus assumed
SMILES: CC[C@H](C)[C@H](NC(=O)[C@H](CCCN)NC(=O)[C@H](CC(=O)O)NC(=O)[C@H](CC(C)C)NC(=O)[C@](C)(CC(C)C)NC(=O)[C@@H](NC(=O)[C@H](CO)NC(=O)[C@H](Cc1ccc(O)cc1)NC(=O)[C@H](CC(=O)O)NC(=O)[C@H](CO)NC(=O)[C@@H](NC(=O)[C@H](Cc1ccccc1)NC(=O)[C@@H](NC(=O)CNC(=O)[C@H](CCC(=O)O)NC(=O)C(C)(C)NC(=O)[C@@H](N)Cc1ccc(O)cc1)[C@@H](C)O)[C@@H](C)CC)[C@@H](C)CC)C(=O)N[C@@H](Cc1c[nH]cn1)C(=O)N[C@@H](CCC(N)=O)C(=O)NC(C)(C)C(=O)N[C@@H](CCC(=O)O)C(=O)N[C@@H](Cc1ccccc1)C(=O)N[C@H](C(=O)N[C@@H](CCC(=O)O)C(=O)N[C@@H](Cc1ccc(O)cc1)C(=O)N[C@@H](CCCCNC(=O)COCCOCCNC(=O)COCCOCCNC(=O)CC[C@H](NC(=O)CCCCCCCCCCCCCCCCCCC(=O)O)C(=O)O)C(=O)N[C@@H](CC(C)C)C(=O)N[C@@H](CCC(=O)O)C(=O)NCC(=O)NCC(=O)N1CCC[C@H]1C(=O)N[C@@H](CO)C(=O)N[C@@H](CO)C(=O)NCC(=O)N[C@@H](C)C(=O)N1CCC[C@H]1C(=O)N1CCC[C@H]1C(=O)N1CCC[C@H]1C(=O)N[C@@H](CO)C(N)=O)C(C)C

Starred links: 1 amine or outer side, 2 acyl side, 3 side chain; linkers in the order of their positions; H or OH if unused. Non-standard residues stand in square brackets, D forms with d. Groups on a side chain read outwards from the residue. No end group written: not given here. *: point of attachment. C20 diacid = O=C(O)CCCCCCCCCCCCCCCCCCC(=O)*; C18 diacid = O=C(O)CCCCCCCCCCCCCCCCC(=O)*; αMePhe(2-F) = C[C@](N)(Cc1ccccc1F)C(=O)O; γGlu = O=C(O)[C@H](CCC(=O)[*:2])N[*:1]; 4Pal = N[C@@H](Cc1ccncc1)C(=O)O; αMeL = CC(C)C[C@](C)(N)C(=O)O; Orn = NCCC[C@H](N)C(=O)O; AEEA = NCCOCCOCC(=O)O; Aib = CC(C)(N)C(=O)O

The values below come from patent US20210032299A1.

Broadly, the Ki is the equilibrium dissociation constant of an inhibitor or competing ligand from its target. Read a high Ki as lower affinity.

human glucagon receptor (human), P47871, sequence (P47871 26-477): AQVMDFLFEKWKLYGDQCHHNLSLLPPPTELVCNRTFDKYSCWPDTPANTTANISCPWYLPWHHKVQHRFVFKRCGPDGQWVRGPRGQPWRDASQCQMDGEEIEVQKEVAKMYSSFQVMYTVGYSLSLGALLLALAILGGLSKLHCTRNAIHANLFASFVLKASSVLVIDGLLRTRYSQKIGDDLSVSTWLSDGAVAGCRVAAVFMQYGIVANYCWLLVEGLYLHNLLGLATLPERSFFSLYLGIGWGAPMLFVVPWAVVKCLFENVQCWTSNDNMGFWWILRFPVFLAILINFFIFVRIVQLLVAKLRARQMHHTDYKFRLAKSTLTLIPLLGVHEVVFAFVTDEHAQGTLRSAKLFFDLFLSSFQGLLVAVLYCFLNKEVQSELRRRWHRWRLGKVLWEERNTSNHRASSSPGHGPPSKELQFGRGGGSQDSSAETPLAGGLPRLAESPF

One assay concerns the target human glucagon receptor (human), P47871. Description: SPA, displacement of [125I]-Gcg from hGcgR membranes, 0.1% bacitracin. On the technique in general: In a radioligand displacement assay an active substance lowers the binding of a labelled ligand.
For the molecule B1, the inhibitory constant (Ki) was determined as 304 nM. In other words, the sub-micromolar range.

Take B2: the Ki stood at 114 nM.

B3 returned a Ki of 572 nM.

In turn, B4 came in with a Ki of 174 nM.

Consider B5, for which the Ki was 619 nM.

Molecule B6 showed a Ki of 347 nM.

In the next assay the target is T1, human glucose-dependent insulinotropic …. Nature of the assay: SPA, displacement of [125I]-GIP from hGIPR membranes, 0.1% bacitracin.
Consider B1, for which the Ki turned out to be 0.0918 nM. This counts as picomolar.

B2 showed an inhibition constant Ki of 0.031 nM.

In the case of B3, the Ki stood at 0.0674 nM.

In turn, B4 showed a Ki of 0.0341 nM.

On to B5, for which the inhibition constant Ki is 0.0771 nM. This Ki is about 2.3-fold higher than that of the molecule before.

In turn, B6 gave an inhibitory constant (Ki) of 0.0722 nM.
